This passage reports RA (relative affinity) results from patent US20170202936A1, “Identification, Optimization And Use Of Cryptic HLA-B7 Epitopes For Immunotherapy” (VAXON BIOTECH, priority 2006, published 2017).

The assay addresses HLA-B*0702 (human). The experiment in a line: T2-B7 cells, HLA-B*0702 surface expression (ME-1 mAb); ratio to reference peptide CMV265-274 (SEQ ID NO: 9). The note with it: remark: other sources report otherwise.

B1: TERT444 (peptide)
peptide: DPRRLVQLL
In the case of B1, the RA (relative affinity) was over 10.
